The values below come from patent US20170101470A1 (PROTHENA BIOSCIENCES, published 2017).

Assay [1] has as its target T1, human MCAM Y167A mutant clone on BHK-S cells (human) (UniProt P43121).
T1 sequence: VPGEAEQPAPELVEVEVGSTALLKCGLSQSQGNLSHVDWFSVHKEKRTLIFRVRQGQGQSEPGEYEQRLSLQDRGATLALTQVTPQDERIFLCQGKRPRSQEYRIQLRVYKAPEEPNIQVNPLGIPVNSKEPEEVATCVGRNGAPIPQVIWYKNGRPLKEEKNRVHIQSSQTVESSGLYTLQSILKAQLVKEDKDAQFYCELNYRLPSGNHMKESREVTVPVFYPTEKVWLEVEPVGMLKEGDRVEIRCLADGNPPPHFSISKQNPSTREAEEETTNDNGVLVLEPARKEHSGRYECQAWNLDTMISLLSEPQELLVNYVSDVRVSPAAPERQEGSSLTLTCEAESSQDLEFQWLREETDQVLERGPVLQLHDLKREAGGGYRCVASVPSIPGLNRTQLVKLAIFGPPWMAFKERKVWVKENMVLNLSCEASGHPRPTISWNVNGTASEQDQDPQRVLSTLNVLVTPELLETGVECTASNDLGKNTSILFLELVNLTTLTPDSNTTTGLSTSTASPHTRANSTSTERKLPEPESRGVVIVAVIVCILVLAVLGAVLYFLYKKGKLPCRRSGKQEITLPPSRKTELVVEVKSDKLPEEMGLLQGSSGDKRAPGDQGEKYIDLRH
The experiment in a line: shotgun mutagenesis, immunodetection on BHK-S cells, 0.25 ug/mL, background-subtracted and normalised to WT, triplicate.

Assay [2] deals with T2, human MCAM I207A mutant clone on BHK-S cells (human) (UniProt P43121).
T2 sequence: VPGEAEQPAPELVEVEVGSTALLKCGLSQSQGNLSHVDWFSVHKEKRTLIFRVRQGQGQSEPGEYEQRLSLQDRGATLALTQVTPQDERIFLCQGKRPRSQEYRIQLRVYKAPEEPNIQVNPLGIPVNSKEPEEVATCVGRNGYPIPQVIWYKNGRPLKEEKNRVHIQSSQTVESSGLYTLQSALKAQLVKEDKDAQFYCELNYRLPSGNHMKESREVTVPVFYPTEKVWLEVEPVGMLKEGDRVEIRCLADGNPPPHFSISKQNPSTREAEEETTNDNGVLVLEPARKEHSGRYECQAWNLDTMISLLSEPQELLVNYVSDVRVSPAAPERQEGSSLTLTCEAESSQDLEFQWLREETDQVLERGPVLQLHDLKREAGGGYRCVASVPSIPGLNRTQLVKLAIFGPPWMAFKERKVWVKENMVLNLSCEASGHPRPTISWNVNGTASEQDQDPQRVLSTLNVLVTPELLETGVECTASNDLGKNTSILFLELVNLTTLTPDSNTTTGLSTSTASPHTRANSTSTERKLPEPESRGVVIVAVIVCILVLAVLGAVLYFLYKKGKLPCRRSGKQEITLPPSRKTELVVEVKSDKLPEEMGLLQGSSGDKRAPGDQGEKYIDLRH
The description is as above.

For assay [3], the target named is T3, human MCAM V241A mutant clone on BHK-S cells (human) (UniProt P43121).
T3 sequence: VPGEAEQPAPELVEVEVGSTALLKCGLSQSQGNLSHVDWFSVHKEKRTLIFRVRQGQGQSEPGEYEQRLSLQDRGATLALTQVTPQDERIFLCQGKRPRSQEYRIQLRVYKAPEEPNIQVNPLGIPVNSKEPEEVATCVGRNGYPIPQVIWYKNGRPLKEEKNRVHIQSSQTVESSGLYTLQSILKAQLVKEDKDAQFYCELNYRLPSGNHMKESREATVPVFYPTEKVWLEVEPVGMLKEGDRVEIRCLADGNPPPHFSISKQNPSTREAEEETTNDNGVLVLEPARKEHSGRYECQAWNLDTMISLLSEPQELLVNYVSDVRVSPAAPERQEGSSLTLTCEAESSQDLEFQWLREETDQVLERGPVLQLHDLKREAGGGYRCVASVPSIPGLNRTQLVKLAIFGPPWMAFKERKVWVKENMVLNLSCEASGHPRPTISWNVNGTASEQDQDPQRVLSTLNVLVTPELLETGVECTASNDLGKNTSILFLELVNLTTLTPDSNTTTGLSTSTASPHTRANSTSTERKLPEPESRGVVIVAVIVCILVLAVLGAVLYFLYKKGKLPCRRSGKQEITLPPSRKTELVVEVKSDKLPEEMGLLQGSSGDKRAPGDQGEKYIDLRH
The assay is described as above.

In assay [4] the target is T4, human MCAM domain 1 hFc construct (human, UniProt P43121 19-129).
T4 construct: One of the 'various MCAMhFc domains' loaded on the ForteBio sensors; also called MCAMhFc domain 1
T4 sequence: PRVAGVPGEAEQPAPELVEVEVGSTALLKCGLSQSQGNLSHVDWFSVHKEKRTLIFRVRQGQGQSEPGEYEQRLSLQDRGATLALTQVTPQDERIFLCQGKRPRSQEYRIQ
Description: ForteBio Octet Red, MCAMhFc domains on anti-human IgG Fc sensors. From the text:
The following protocol was used: ForteBio anti-human IgG Fc biosensors were used to immobilize various MCAMhFc domains including full length MCAMhFc protein on to biosensor surface. […] After loading these samples into a black 96 well plate, the Octet Red was programmed as follows: 60 seconds for baseline #1; 180 seconds for loading various domains; 60 seconds for baseline #2; 180 seconds for association of antibody to domain; and 240 seconds for dissociation of antibody from domain.
Reagents and Supplies Used: [0358] 1. MCAMhFc final concentration @ 5 ug/ml [0359] […] 3. ForteBio anti-human IgG Fc Capture (AHC) biosensors for kinetics experiments, cat#18-5060 [0361] 4. Block 96 well plate from Greiner Bio-one, cat#655209 [0362] 5. ForteBio Octet Red machine [0363] 6. Fresh tissue culture medium, DMEM with 20% FCS, was used as buffer for dilution
(In general: Biolayer interferometry detects binding as a change in optical thickness at a sensor tip.)

B1: rat anti-human MCAM monoclonal antibody clone 2120.4.19 (antibody, V domains shown)
VH: QVQLKESGPGLVQPSQTLSLTCTVSGFSLTSNGVSWVRQPPGKGLEWIAAISSGGTTYYNSAFKSRLSISRNTSKSQVLLKMNSLQTEDTAMYFCARRYGYGWYFDFWGPGTMVTVSS
VL: DIRMTQSPSLLSASVGDRVTLNCKASQNIYNSLAWYQQKLGEGPKVLIPNANSLQTGIPSRFSGSGSGTDFTLTISSLQPEDFATYFCQQFYSGYTFGAGTKLELK
notes: also called m2120
As to B1, the mean reactivity (% of wild type MCAM) worked out at 14.3 % WT in assay [1], 23.6 % WT in assay [2] and 24.4 % WT in assay [3]. For the same molecule, the binding result in assay [4] is on record as “no binding (tested: 5 ug/ml)”.
